Laboratory results published in paper PMC4484057.

What was measured:
Gαi1-intYFP = Gαi1-intYFP (UniProt P63096); assay: FRET or BRET; living HeLa cells cotransfected with Gαi1-intYFP, CFP-Gβ1 and Gγ2, 0.2% FBS overnight, before stimulation (t0); confocal, FRET efficiency at the plasma membrane; also Daple-depleted cells with or without Wnt5a, and Wnt3 stimulation, where FRET continued
GST-FZD7-CT = GST-FZD7-CT (UniProt O75084); assay: pull-down; as a19, His-Gαi3 (GDP) with GST-FZD7-CT in the presence of His-Daple-CT WT

Chain of His-Gαi3 (P08753 whole entry): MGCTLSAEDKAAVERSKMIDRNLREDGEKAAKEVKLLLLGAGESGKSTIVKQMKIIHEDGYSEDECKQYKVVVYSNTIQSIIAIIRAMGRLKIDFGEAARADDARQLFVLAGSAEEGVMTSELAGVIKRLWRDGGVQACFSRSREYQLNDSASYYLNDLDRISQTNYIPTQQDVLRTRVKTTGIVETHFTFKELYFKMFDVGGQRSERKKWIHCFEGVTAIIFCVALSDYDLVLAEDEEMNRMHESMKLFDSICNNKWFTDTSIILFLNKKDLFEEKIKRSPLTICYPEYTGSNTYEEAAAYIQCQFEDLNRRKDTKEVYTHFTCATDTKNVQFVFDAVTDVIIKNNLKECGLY
Chain of Gαi1-intYFP (P63096 whole entry): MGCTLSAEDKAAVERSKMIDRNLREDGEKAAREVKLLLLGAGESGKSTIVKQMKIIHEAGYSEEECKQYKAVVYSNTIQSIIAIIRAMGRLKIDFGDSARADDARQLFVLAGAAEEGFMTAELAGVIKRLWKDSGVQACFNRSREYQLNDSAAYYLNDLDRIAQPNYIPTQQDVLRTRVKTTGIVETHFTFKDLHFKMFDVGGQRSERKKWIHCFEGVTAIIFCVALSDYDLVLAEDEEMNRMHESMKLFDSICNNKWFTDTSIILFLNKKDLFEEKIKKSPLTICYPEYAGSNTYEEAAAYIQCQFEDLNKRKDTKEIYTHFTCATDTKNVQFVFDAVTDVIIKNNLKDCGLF

## CFP-Gβ1 with Gγ2 (from UniProt P62873 1-340; P59768 1-71) (complex)
Gαi1-intYFP
  FRET efficiency: 0.36

## His-Gαi3 (from UniProt P08753 1-354) (natural protein)
GST-FZD7-CT
  fold increase of binding in the presence of m2: 5 fold
